Source: patent US20140087995A1 (published 2014)
One block for each binder: values may come before it. Numbered stars: 1 amine (or outer) side, 2 acyl side, 3 side chain; on linkers, the order of the positions; unused ones are H or OH. Bridge positions count the residues as written; N and C are the ends. Side chains are listed from the residue outwards. Ends that are not written are not given here. * marks the point of attachment. C20 diacid = O=C(O)CCCCCCCCCCCCCCCCCCC(=O)*; γGlu = O=C(O)[C@H](CCC(=O)[*:2])N[*:1]; AEEA = NCCOCCOCC(=O)O

Columns and labels:
[1] = biological target: T1, human calcitonin receptor (human, UniProt P30988 25-474); assay: cell-based or functional assay
T1 sequence (looked up): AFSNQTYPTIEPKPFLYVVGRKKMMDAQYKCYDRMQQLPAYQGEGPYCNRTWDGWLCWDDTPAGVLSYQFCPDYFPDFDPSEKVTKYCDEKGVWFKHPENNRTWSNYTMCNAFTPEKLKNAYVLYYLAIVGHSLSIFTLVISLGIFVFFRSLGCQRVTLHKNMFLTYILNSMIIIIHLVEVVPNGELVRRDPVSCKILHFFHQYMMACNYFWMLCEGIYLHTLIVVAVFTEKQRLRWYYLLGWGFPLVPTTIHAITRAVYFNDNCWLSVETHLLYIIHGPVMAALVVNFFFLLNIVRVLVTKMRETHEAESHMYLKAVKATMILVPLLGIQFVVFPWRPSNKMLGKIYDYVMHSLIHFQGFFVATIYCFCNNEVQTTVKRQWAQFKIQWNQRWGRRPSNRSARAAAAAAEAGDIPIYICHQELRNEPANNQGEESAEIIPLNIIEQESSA

[2] = biological target: T2, human amylin receptor (amylin 3(a) receptor: human calcitonin receptor co-expressed with RAMP-3) (human, UniProt P30988 25-474; O60896 24-148, limits assumed); assay: cell-based or functional assay
T2 sequence (looked up) 1: T1 sequence (looked up)
T2 sequence (looked up) 2: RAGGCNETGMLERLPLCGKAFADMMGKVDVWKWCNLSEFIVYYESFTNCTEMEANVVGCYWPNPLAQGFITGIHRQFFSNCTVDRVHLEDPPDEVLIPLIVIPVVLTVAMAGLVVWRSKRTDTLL

Ratio hCT/hAmylin funct. (hCTR EC50 against hAmylin-R EC50) [1]: 25.8
hCTR funct. EC50 [1]: 8160 pM
hAmylin-R funct. EC50 [2]: 316 pM
B1: N^ε1-[2-[2-[2-[[(4S)-4-carboxy-4-(19-carboxynonadecanoylamino)butanoyl]amino]ethoxy]ethoxy]acetyl]-[Arg17,Pro21,Pro27,Arg34]-h-amylin (peptide)
peptide: K([AEEA-γGlu-C20 diacid])CNTATCATQRLANFLRHSSPNFGAIPSSTNVGRNTY-NH2
modifications: disulfide 2-7; N-terminus assumed
SMILES: CC[C@H](C)[C@H](NC(=O)[C@H](C)NC(=O)CNC(=O)[C@H](Cc1ccccc1)NC(=O)[C@H](CC(N)=O)NC(=O)[C@@H]1CCCN1C(=O)[C@H](CO)NC(=O)[C@H](CO)NC(=O)[C@H](Cc1c[nH]cn1)NC(=O)[C@H](CCCNC(=N)N)NC(=O)[C@H](CC(C)C)NC(=O)[C@H](Cc1ccccc1)NC(=O)[C@H](CC(N)=O)NC(=O)[C@H](C)NC(=O)[C@H](CC(C)C)NC(=O)[C@H](CCCNC(=N)N)NC(=O)[C@H](CCC(N)=O)NC(=O)[C@@H](NC(=O)[C@H](C)NC(=O)[C@@H]1CSSC[C@H](NC(=O)[C@@H](N)CCCCNC(=O)COCCOCCNC(=O)CC[C@H](NC(=O)CCCCCCCCCCCCCCCCCCC(=O)O)C(=O)O)C(=O)N[C@@H](CC(N)=O)C(=O)N[C@@H]([C@@H](C)O)C(=O)N[C@@H](C)C(=O)N[C@@H]([C@@H](C)O)C(=O)N1)[C@@H](C)O)C(=O)N1CCC[C@H]1C(=O)N[C@@H](CO)C(=O)N[C@@H](CO)C(=O)N[C@H](C(=O)N[C@@H](CC(N)=O)C(=O)N[C@H](C(=O)NCC(=O)N[C@@H](CCCNC(=N)N)C(=O)N[C@@H](CC(N)=O)C(=O)N[C@H](C(=O)N[C@@H](Cc1ccc(O)cc1)C(N)=O)[C@@H](C)O)C(C)C)[C@@H](C)O
notes: also called compound 78

Ratio hCT/hAmylin funct. (hCTR EC50 against hAmylin-R EC50) [1]: 24.8
hCTR funct. EC50 [1]: 7370 pM
hAmylin-R funct. EC50 [2]: 297 pM
B2: N^ε1-[2-[2-[2-[[(4S)-4-carboxy-4-(19-carboxynonadecanoylamino)butanoyl]amino]ethoxy]ethoxy]acetyl]-[Arg17,Pro21,Pro27,His34]-h-amylin (peptide)
peptide: K([AEEA-γGlu-C20 diacid])CNTATCATQRLANFLRHSSPNFGAIPSSTNVGHNTY-NH2
modifications: disulfide 2-7; N-terminus assumed
SMILES: CC[C@H](C)[C@H](NC(=O)[C@H](C)NC(=O)CNC(=O)[C@H](Cc1ccccc1)NC(=O)[C@H](CC(N)=O)NC(=O)[C@@H]1CCCN1C(=O)[C@H](CO)NC(=O)[C@H](CO)NC(=O)[C@H](Cc1c[nH]cn1)NC(=O)[C@H](CCCNC(=N)N)NC(=O)[C@H](CC(C)C)NC(=O)[C@H](Cc1ccccc1)NC(=O)[C@H](CC(N)=O)NC(=O)[C@H](C)NC(=O)[C@H](CC(C)C)NC(=O)[C@H](CCCNC(=N)N)NC(=O)[C@H](CCC(N)=O)NC(=O)[C@@H](NC(=O)[C@H](C)NC(=O)[C@@H]1CSSC[C@H](NC(=O)[C@@H](N)CCCCNC(=O)COCCOCCNC(=O)CC[C@H](NC(=O)CCCCCCCCCCCCCCCCCCC(=O)O)C(=O)O)C(=O)N[C@@H](CC(N)=O)C(=O)N[C@@H]([C@@H](C)O)C(=O)N[C@@H](C)C(=O)N[C@@H]([C@@H](C)O)C(=O)N1)[C@@H](C)O)C(=O)N1CCC[C@H]1C(=O)N[C@@H](CO)C(=O)N[C@@H](CO)C(=O)N[C@H](C(=O)N[C@@H](CC(N)=O)C(=O)N[C@H](C(=O)NCC(=O)N[C@@H](Cc1c[nH]cn1)C(=O)N[C@@H](CC(N)=O)C(=O)N[C@H](C(=O)N[C@@H](Cc1ccc(O)cc1)C(N)=O)[C@@H](C)O)C(C)C)[C@@H](C)O
notes: also called compound 76

Ratio hCT/hAmylin funct. (hCTR EC50 against hAmylin-R EC50) [1]: 9.8
hCTR funct. EC50 [1]: 625 pM
hAmylin-R funct. EC50 [2]: 64 pM
Binder: K([AEEA-γGlu-C20 diacid])CNTATCATQRLANFLRHSSPNFGAIPPSTPVGSNTY-NH2 (disulfide 2-7, also called compound 53)
